In experiment [1] the target is T1, DENV-1 envelope protein domain III (DIII), fused with IgG1 Fc and a C-terminal Avi-tag (Dengue virus type 1, strain ; …, UniProt B6DXD2).
T1 construct: also called DENV-1 DIII; DENV1 DIII
Briefly: SPR. The note with it: both partners purified.

The target in experiment [2] is T2, DENV-4 envelope protein domain III (DIII), fused with IgG1 Fc and a C-terminal Avi-tag (Dengue virus type 4, strain ; …, UniProt P09866).
T2 construct: also called DENV-4 DIII; DENV4 DIII
Briefly: SPR. To be noted: both partners purified.

Experiment [3] concerns the target T3, DENV-2 envelope protein domain III (DIII), fused with IgG1 Fc and a C-terminal Avi-tag (Dengue virus type 2, strain ; …).
T3 construct: also called DENV-2 DIII; DENV2 DIII
T3 chain: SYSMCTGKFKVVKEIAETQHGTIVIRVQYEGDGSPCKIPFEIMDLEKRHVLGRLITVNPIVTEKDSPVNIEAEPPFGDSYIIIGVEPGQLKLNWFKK
Briefly: SPR. To be noted: both partners purified.

For experiment [4], the target named is T4, DENV-3 envelope protein domain III (DIII), fused with IgG1 Fc and a C-terminal Avi-tag (Dengue virus type 3, strain ; …, UniProt Q99D35).
T4 construct: also called DENV-3 DIII; DENV3 DIII
Briefly: SPR. The note with it: both partners purified.

The target of experiment [5] is T1, DENV-1 envelope protein domain III …. Briefly: cell-based or functional assay.
For experiment [6], the target named is T2, DENV-4 envelope protein domain III …. The experiment in a line: cell-based or functional assay.
The target of experiment [7] is T3, DENV-2 envelope protein domain III …. The experiment in a line: cell-based or functional assay.
Experiment [8] has as its target T4, DENV-3 envelope protein domain III …. Briefly: cell-based or functional assay.

B1: m366.6 scFv-Fc (scFv, V domains shown)
VH: QLQLQESGGGLVQPGGSLRLSCAASGFTFSSHSMNWIRQAPGKRLEWVSSISSSSSYIYYADSVRGRFTISRDNAKNSLYLQMDSLRAEDTAVYYCARYMAGIWTFDIWGQGTMVTVSS
VL: SYELTQPPSVSVAPGKTASISCGGDNIGRKSVHWFQQKPGQAPVLVLYDDSDRPSGIPARFSGSNSGNTATLTISGVEAGDEADYYCQVWARSSDLPNWVFGGGTKLTVL
notes: also called mAb m366.6
B1: the Kd in experiment [1] amounted to 0.78 nM; in experiment [2] it was 1.9 nM; in experiment [3], 0.29 nM; in experiment [4] it was 0.27 nM. For the same molecule, the koff in experiment [1] was 0.00025 s⁻¹; in experiment [2], 0.00062 s⁻¹; in experiment [3], 0.00025 s⁻¹; in experiment [4], 0.00018 s⁻¹. In addition, the kon came to 320000 M⁻¹ s⁻¹ in experiment [1], 330000 M⁻¹ s⁻¹ in experiment [2], 960000 M⁻¹ s⁻¹ in experiment [3] and 660000 M⁻¹ s⁻¹ in experiment [4]. The other in experiment [5] came to 22 µg/mL; in experiment [6] it was 0.36 µg/mL; in experiment [7], 2.4 µg/mL; in experiment [8] it was 0.85 µg/mL.

The values are drawn from article PMC6615639, “A broadly neutralizing germline-like human monoclonal antibody against dengue virus envelope domain III” (PLoS Pathogens, 2019).
